This is an account of results in article PMC8028046 (2021).

The target of the experiment is amyloid-beta fibrils (Homo sapiens, UniProt P05067). As to the kind of experiment: SPR.
amyloid-beta fibrils, sequence (P05067 672-713): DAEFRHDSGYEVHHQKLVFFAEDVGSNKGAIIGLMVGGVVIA

B1: proSP-C BRICHOS BRICHOS (protein)
chain: TATFSIGSTGLVVYDYQQLLIAYKPAPGTCCYIMKIAPESIPSLEALTRKVHNFQMECSLQAKPAVPTSKLGQAEGRDAGSAPSGGDPAFLGMAVSTLCGEVPLYYI
B1 gave a dissociation constant (Kd) of around 130 nM.
